Measurements published in paper doi:10.1101/2020.07.27.221150.
Where two headings read alike, the source gives them in different places.

Assays:
[1] = target: GNNQQNY, N-terminal hepta-peptide of yeast prion protein Sup35 (yeast)
[2] = target: GNNQQNY, N-terminal hepta-peptide of yeast prion protein Sup35 (yeast); remark: listed apart in the source

## GNNQQNY, N-terminal hepta-peptide of yeast prion protein Sup35
[1]
  size of the critical nucleus n*: 7.2 monomers
[2]
  size of the critical nucleus n*: 6 monomers
